PMC8350387, “Solution Structure of the dATP-Inactivated Class I Ribonucleotide Reductase From Leeuwenhoekiella blandensis by SAXS and Cryo-Electron Microscopy” (Frontiers in Molecular Biosciences, 2021)

How the values were obtained:
[1] = molecular target: Leeuwenhoekiella blandensis class I ribonucleotide reductase radical-generating subunit NrdB (LbNrdB) (Leeuwenhoekiella blandensis); test: SEC-SAXS; LbNrdB alone, 350 μL of 11 mg/ml with 1 mM dATP loaded on Superdex S200; SEC buffer 50 mM Tris-HCl pH 7.6, 300 mM NaCl, 2 mM DTT, 1 mM Mg acetate, 0.4 mM dATP, 5% glycerol
[2] = molecular target: Leeuwenhoekiella blandensis class I ribonucleotide reductase radical-generating subunit NrdB (LbNrdB) (Leeuwenhoekiella blandensis); test: cryo-EM structure; LbNrdAB complex formed with dATP, isolated on Superdex 200 with on-column 0.05% glutaraldehyde cross-linking in HEPES buffer; single particle reconstruction at 8.2 Å, no symmetry imposed
[3] = molecular target: Leeuwenhoekiella blandensis class I ribonucleotide reductase radical-generating subunit NrdB (LbNrdB) (Leeuwenhoekiella blandensis); test: SEC-SAXS; LbNrdA and LbNrdB mixed at 85 μM each with 1 mM dATP and 2 mM magnesium acetate, 5 min, on Superdex S200; SEC buffer 50 mM Tris-HCl pH 7.6, 300 mM NaCl, 2 mM DTT, 1 mM Mg acetate, 0.4 mM dATP, 5% glycerol
[4] = molecular target: the molecule itself; test: SAXS; batch mode, LbNrdA 0.625-5 mg/ml in 50 mM Tris-HCl pH 7.6, 300 mM NaCl, 2 mM DTT, 5% glycerol, 2 mM magnesium acetate, 1 mM dATP; 10 °C

| stoichiometry N [1] | stoichiometry N [2] | stoichiometry N [3] | stoichiometry N (LbNrdA per LbNrdB (α4β4)) [3] | Molecule | stoichiometry N [4] |
| --- | --- | --- | --- | --- | --- |
| 4 | 4 | 4 |  | Leeuwenhoekiella blandensis class I ribonucleotide reductase radical-generating subunit NrdB (LbNrdB) (enzyme) |  |
|  |  |  | 1 | Leeuwenhoekiella blandensis class I ribonucleotide reductase catalytic subunit NrdA (LbNrdA) (enzyme, UniProt A3XHF8 1-600, looked up, NrdA (α subunit, subclass NrdAi, lacks an ATP-cone) of Leeuwenhoekiella blandensis; the homology model covers residues 40-596 and lacks 43 terminal residues per monomer; Dimer (α2) with dATP by SAXS; also called α2 (dimer); source: purified as described previously (Rozman Grinberg et al., 2018a); not shown: His6, N-terminal, kept) MRENTTKLENSTETNVQHTKDNDLLKARRDALQDATEKNTDEPSFDWLTEHSRSFLAAGYLSEGVSAEERIREIADRAEEILRMPGFSDKFYKYMGEGYFSLASPVWSNFGKKRGLPISCFGSHIDDDMGNILYTQSEVGMMSKLGGGTSGYFGKIRHRGAAVKNNGYASGAVHIMQLFDKMVDVVSQGSVRRGRFSPYLPISHPDIKEFLEIGTEGNSIQQLTHGVTVDSTWMQEMIDGDTDKREVWAKVLQRRGEMGYPYIFYTDNANNGKPDVYKDKGHDIYASNLCTEIMLPSSDEWSFVCVLSSINVLHYDKWKNTDAVETMVCFLDAVLTEFIDKLEEYRDSDNRDHRQTFMFMERAYNFAKSNRALGLGVLGWHSLLQSKRHAFDSQEAYDLNSEIFREIKQRSYKASEELAEKFGEPETLKGYGRRNATLNAIAPTTSSAFILGQVSQGIEPIWSNVYVKDIAKIKTTIKNPFLEELFEEKGMNTPEVWRSVRDNDGSVQHLEFLTEQEKDVFKTYAEIDQMAIIYQAANRQNHIDQGQSINLLVHPDMPIKEINKIHITAWKLGLKSLYYQHSMNAAQKFKQKKECVSCEA | 2 |
